This passage reports binding result and OD450 results from patent US20230265185A1 (NATIONAL RESEARCH COUNCIL OF CANADA, published 2023).

For assay [1], the target named is T1, hCD22 fragment Bin 3, IVR3 (aa211-317), displayed on yeast cells (human, UniProt P20273 230-336).
T1 construct: Range is counted on the mature ECD, not on the UniProt entry; on P20273 it would be 230-336 (my arithmetic); not shown: Aga2-HA display fusion partner of vector pPNL6; MYC tag
T1 sequence (looked up): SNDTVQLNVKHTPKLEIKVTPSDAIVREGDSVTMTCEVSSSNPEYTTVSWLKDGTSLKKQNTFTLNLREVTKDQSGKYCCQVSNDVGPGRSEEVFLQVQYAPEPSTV
Kind of assay: yeast display cell ELISA. The method, then: (§1) The YSD vector (pPNL6) was from The Pacific Northwest National Laboratory, USA. […] The HRP activity was assayed with substrate TMB (tetramethyl benzidine) according to the manufacture’s conditions and read at OD₄₅₀.
(§2) The wells that gave rise to OD₄₅₀ above 0.25 were highlighted, indicating significant antibody-antigen interactions. All the sdAbs tested except hCd22_1ug-14 were assigned to specific Bin(s).

Assay [2] concerns the target T2, hCD22 fragment Bin 5, IVR5 (aa391-490), displayed on yeast cells (human, UniProt P20273 410-509).
T2 construct: range 391-490; Range is counted on the mature ECD, not on the UniProt entry; on P20273 it would be 410-509 (my arithmetic); not shown: Aga2-HA display fusion partner of vector pPNL6; MYC tag
T2 sequence (looked up): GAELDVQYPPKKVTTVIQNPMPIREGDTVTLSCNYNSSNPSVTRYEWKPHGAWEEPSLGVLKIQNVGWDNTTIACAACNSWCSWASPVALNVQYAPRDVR
The experiment in a line: yeast display cell ELISA. The method, then:
as §1, §2

The target in assay [3] is T3, hCD22 fragment Bin 4, IVR4 (aa303-405), displayed on yeast cells (human, UniProt P20273 322-424).
T3 construct: Range is counted on the mature ECD, not on the UniProt entry; on P20273 it would be 322-424 (my arithmetic); also called CD22 Sub-Domain 4; not shown: Aga2-HA display fusion partner of vector pPNL6; MYC tag
T3 sequence (looked up): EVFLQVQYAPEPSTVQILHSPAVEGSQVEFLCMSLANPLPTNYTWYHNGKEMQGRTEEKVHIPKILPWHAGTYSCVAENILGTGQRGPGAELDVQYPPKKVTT
Kind of assay: yeast display cell ELISA. How it is done:
as §1, §2

Assay [4] addresses T4, hCD22 fragment Bin 2, IVR2 (aa111-230), displayed on yeast cells (human, UniProt P20273 130-249).
T4 construct: range 111-230; Range is counted on the mature ECD, not on the UniProt entry; on P20273 it would be 130-249 (my arithmetic); not shown: Aga2-HA display fusion partner of vector pPNL6; MYC tag
T4 sequence (looked up): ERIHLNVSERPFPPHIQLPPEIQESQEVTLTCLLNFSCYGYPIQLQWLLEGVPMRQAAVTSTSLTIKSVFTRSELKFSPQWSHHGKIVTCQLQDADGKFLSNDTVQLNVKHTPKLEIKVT
The experiment in a line: yeast display cell ELISA. The method, then: as §1, §2

Assay [5] deals with T5, hCD22 fragment Bin 1, IVR1 (aa1-135), displayed on yeast cells (human, UniProt P20273 20-154).
T5 construct: range 1-135; Range is counted on the mature ECD, not on the UniProt entry; on P20273 it would be 20-154 (my arithmetic); also called CD22 Sub-Domain 1; not shown: Aga2-HA display fusion partner of vector pPNL6; MYC tag
T5 sequence (looked up): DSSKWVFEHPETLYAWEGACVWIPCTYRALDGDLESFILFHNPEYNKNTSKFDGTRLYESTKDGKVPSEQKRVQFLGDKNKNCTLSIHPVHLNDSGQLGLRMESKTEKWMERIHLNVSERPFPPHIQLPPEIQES
Kind of assay: yeast display cell ELISA. How it is done: as §1, §2

Assay [6] concerns the target T6, full-length hCD22-ECD (668aa) displayed on yeast cells (human, UniProt P20273 20-687).
T6 construct: extracellular domain; Yeast surface display fusion Aga2-HA-(insert)-MYC; also called Bin 8; CD22-ECD Full lenght; not shown: Aga2-HA display fusion partner of vector pPNL6; MYC tag
T6 sequence (looked up): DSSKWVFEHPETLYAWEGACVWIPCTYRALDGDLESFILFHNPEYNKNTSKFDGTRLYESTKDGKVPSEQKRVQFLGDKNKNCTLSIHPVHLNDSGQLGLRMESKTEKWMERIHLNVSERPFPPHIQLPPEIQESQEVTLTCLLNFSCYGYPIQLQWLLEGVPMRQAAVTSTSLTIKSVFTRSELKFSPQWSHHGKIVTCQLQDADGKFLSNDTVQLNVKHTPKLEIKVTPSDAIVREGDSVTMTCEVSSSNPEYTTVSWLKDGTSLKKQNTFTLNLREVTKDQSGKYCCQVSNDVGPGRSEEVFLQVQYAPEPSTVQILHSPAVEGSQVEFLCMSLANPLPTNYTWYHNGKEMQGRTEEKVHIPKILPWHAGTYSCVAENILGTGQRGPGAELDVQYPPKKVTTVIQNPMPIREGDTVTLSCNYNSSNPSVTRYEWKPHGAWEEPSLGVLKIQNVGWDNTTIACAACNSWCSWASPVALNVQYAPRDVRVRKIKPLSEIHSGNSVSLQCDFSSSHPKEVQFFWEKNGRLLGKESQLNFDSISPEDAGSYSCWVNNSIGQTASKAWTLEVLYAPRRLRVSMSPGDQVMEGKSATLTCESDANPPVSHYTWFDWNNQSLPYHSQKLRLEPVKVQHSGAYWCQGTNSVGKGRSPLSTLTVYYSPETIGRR
The experiment in a line: yeast display cell ELISA, biotinylated sdAb 250 nM. How it is done:
as §1, §2

B1: hCD22pas-32 (VHH)
VHH: QVQLVESGGGLVQAGGSLRLSCAVSGRIFRSYVLGWFRQAPGKERELVARIGWSDTYYADSVKGRFTISRDNAKNTVDLQMNSLKPEDTAVYYCAANSPPYGPQRDEFGYWGQGTQVTVSS
modifications: single biotin at the VHH C-terminal (biotinylation signal sequence)
notes: llama VHH, expressed in E. coli TG1, IMAC purified, monomeric SEC fraction; also called VHH # 15; 6-hCD22 pas-32
Regarding B1, the binding result in assay [1], in assay [2], in assay [3], in assay [4] and in assay [5] was “no binding (tested: OD450 not above 0.25; sdAb 250 nM)” throughout. Moreover, the OD450 in assay [6] stood at 0.289 OD450.

B2: hCD22pas-24 (VHH)
VHH: QVQLVESGGGLVQAGGSLRLSCSASGITSSINSMGWHRQAPGKQRELVASIGRGGSGSTKYADSGKGRFLISRDNNKNILFLEMNSLKPEDTADYYCLEVTTDLSSYWGRGTQVTVSS
modifications: single biotin at the VHH C-terminal (biotinylation signal sequence)
notes: llama VHH, expressed in E. coli TG1, IMAC purified, monomeric SEC fraction; also called VHH # 26; 8-hCD22 pas-24
Consider B2, for which the binding result in assay [1], in assay [2], in assay [3], in assay [4] and in assay [5] was “no binding (tested: OD450 not above 0.25; sdAb 250 nM)” throughout. In assay [6], this molecule came in with an OD450 of 1.18 OD450.

B3: hCD22pas-64 (VHH)
VHH: QVQLVESGGGLVQAGGSLRLSCAASGSTFSLNTMAWYRQAPGNQREYVAAASSDGYTNYADSVRGRFTISRDNDKNTMYLQMNSLRPEDTAVYYCTWGTGRFADYIYWGQGTQVTVSS
modifications: single biotin at the VHH C-terminal (biotinylation signal sequence)
notes: llama VHH, expressed in E. coli TG1, IMAC purified, monomeric SEC fraction; also called VHH # 25; 7-hCD22 pas-64
Turning to B3, the binding result in assay [1], in assay [2], in assay [3], in assay [4] and in assay [5] was “no binding (tested: OD450 not above 0.25; sdAb 250 nM)” each time.

B4: hCD221ug-10 (VHH)
VHH: QVQLVESGGGLVQAGGSLSVSCTASESTFSIMMGWFRQAPGKQREMVAVINSAGSTNYADSAEGRFTISRDLAKKTVSLQMNSLKPEDTAVYYCYVDGYFGQGTQVTVSS
modifications: single biotin at the VHH C-terminal (biotinylation signal sequence)
notes: llama VHH, expressed in E. coli TG1, IMAC purified, monomeric SEC fraction; also called VHH # 23; 5-hCD22 1ug-10
As for B4, the binding result in assay [1], in assay [2], in assay [3], in assay [4] and in assay [5] was “no binding (tested: OD450 not above 0.25; sdAb 250 nM)” throughout. In assay [6], the OD450 is 0.332 OD450.

B5: hCD221ug-80 (VHH)
VHH: QVQLVESGGGLVQPGGSLRLSCTFSGFTLDYYVMVWFRQAPGKEREAVSCITSDGVTYYADSVKGRFTISRDNAKNTVYLQMNRVKPEDTAVYYCAVDKPFYDGGIQYTCPVDFDSWGQGAQVTVSS
modifications: single biotin at the VHH C-terminal (biotinylation signal sequence)
notes: llama VHH, expressed in E. coli TG1, IMAC purified, monomeric SEC fraction; also called VHH # 1; 2-hCD22 1ug-80
B5: the binding result in assay [1], in assay [2], in assay [3] and in assay [4] was “no binding (tested: OD450 not above 0.25; sdAb 250 nM)” each time. In assay [6], this molecule returned an OD450 of 1.81 OD450.

B6: hCD221ug-61 (VHH)
VHH: QVQLVESGGGLVQAGGSLRLSCAASMSSFSQYVMYWYRQAPGKQRELVATITSYSNTNYADSVKGRFTISRDNAKSIAYLQMDSLKPEDTAVYYCNAQYGSTFIRNHWDDWGQGTQVTVSS
modifications: single biotin at the VHH C-terminal (biotinylation signal sequence)
notes: llama VHH, expressed in E. coli TG1, IMAC purified, monomeric SEC fraction; also called VHH # 14; 3-hCD22 1ug-61
B6: the binding result in assay [1], in assay [2], in assay [3], in assay [4] and in assay [5] was “no binding (tested: OD450 not above 0.25; sdAb 250 nM)” in each case. In assay [6], this molecule came in with an OD450 of 1.48 OD450.

B7: hCD221ug-13 (VHH)
VHH: QVQLVESGGGLVQAGDSLRLSCAGSGGSFSSVTMAWFRQAPGKDREFVAAITWSSPSTYYADSVKGRFTISRDNAKNTVYLQMNSLKPEDTAVYYCAGGRTGRGTSADTDEYNYWGQGTQVTVSS
modifications: single biotin at the VHH C-terminal (biotinylation signal sequence)
notes: llama VHH, expressed in E. coli TG1, IMAC purified, monomeric SEC fraction; also called VHH # 21; 1-hCD22 1ug-13
Take B7: the binding result in assay [1], in assay [2], in assay [4] and in assay [5] was “no binding (tested: OD450 not above 0.25; sdAb 250 nM)” in each case. In assay [6], this molecule returned an OD450 of 1.19 OD450.

B8: hCD221ug-36 (VHH)
VHH: EVQLVDSGGGLVQAGGSLRVSCEASGITFSRAAMGWYRQRPGKERERVAVVNSDSSTIYADSVKGRFTISRDNAKNTVYLQMNSLEPEDTAVYYCWSPGFGSYWGQGTQVTVSS
modifications: single biotin at the VHH C-terminal (biotinylation signal sequence)
notes: llama VHH, expressed in E. coli TG1, IMAC purified, monomeric SEC fraction; also called VHH # 22; 4-hCD22 1ug-36
Regarding B8, the binding result in assay [1], in assay [2], in assay [3], in assay [4] and in assay [5] was “no binding (tested: OD450 not above 0.25; sdAb 250 nM)” throughout. In assay [6], the OD450 is 1.42 OD450.
